The binders below were run against T1, p34^cdc2 cell cycle regulatory kinase (Homo sapiens (Human), UniProt P06493) (assay: IC50 column of Table 1 (ELISA based competition on p107 30mer-coated plate)).
YIMAK [p107 N5mer peptide]: no binding (tested: >100 µM). LCAAYIMAK [p107 9mer peptide 715FA]: no binding (tested: >100 µM). LCAKYIMAK [p107 9mer peptide 715FK]: no binding (tested: >100 µM). LCAFYKMAK [p107 9mer peptide 717IK]: no binding (tested: >100 µM).

Each binder was assayed against T1, p34^cdc2 cell cycle regulatory kinase (assay: IC50 column of Table 1 (ELISA based competition, competitor plate-bound p107 30mer)).
In the case of YIMAK [p107 N5mer peptide], the IC50 is reported as greater than 100 µM. Binder LCAAYIMAK [p107 9mer peptide 715FA] has an IC50 greater than 100 µM. Work on LCAKYIMAK [p107 9mer peptide 715FK] yielded an IC50 greater than 100 µM. LCAFYKMAK [p107 9mer peptide 717IK] gave an IC50 greater than 100 µM.
